In patent US20050048527:

Assays:
[1] = test system: Thermus aquaticus DNA polymerase
[2] = test system: CLEAVASE BN/thrombin nuclease
[3] = molecular target: CLEAVASE A/G nuclease (Thermus aquaticus) (UniProt P19821); assay: cleavage_in_vitro; conditions: probe cleaved in 30 min
[4] = molecular target: DNAPTth (Thermus thermophilus) (UniProt P52028); assay: cleavage_in_vitro; conditions: probe cleaved in 30 min
[5] = molecular target: T1, Mja FEN1 (Methanococcus jannaschii) (UniProt Q58839); assay: cleavage_in_vitro; conditions: turnover
T1 sequence: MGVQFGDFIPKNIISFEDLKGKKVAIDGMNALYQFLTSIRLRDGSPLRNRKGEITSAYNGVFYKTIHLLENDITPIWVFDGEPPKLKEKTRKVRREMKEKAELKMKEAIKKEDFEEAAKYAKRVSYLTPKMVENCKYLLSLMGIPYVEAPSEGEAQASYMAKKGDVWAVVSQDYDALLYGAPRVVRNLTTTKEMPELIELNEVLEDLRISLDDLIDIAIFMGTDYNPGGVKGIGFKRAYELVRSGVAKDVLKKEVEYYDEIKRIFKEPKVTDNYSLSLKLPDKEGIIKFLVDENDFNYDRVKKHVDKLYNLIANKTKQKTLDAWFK

[6] = molecular target: T2, Pfu FEN1 (Pyrococcus furiosus) (UniProt O93634); assay: cleavage_in_vitro; conditions: turnover
T2 sequence: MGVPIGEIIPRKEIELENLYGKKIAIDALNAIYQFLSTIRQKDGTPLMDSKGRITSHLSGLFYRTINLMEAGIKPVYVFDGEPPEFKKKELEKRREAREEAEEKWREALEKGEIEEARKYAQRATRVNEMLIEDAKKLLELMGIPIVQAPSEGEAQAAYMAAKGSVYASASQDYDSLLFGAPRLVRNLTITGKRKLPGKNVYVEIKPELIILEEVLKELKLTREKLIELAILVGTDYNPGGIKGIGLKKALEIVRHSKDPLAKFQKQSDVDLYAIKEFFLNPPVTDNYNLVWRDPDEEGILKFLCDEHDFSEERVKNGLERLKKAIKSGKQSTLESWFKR

[7] = molecular target: PAP FEN1 (arch swap chimera) (Pyrococcus furiosus / Archaeoglobus fulgidus?) (UniProt O93634); assay: cleavage_in_vitro; conditions: rate vs Pfu FEN1
[8] = molecular target: MAM FEN1 (arch swap chimera) (Methanococcus jannaschii / Archaeoglobus fulgidus?) (UniProt Q58839); assay: cleavage_in_vitro; conditions: rate vs Pfu FEN1
[9] = molecular target: PMP FEN1 (arch swap chimera) (UniProt O93634); assay: cleavage_in_vitro; conditions: rate vs Pfu FEN1
[10] = molecular target: MPM FEN1 (arch swap chimera) (Methanococcus jannaschii / Pyrococcus furiosus?) (UniProt Q58839); assay: cleavage_in_vitro; conditions: rate vs Pfu FEN1
[11] = molecular target: Pfu + M4 FEN1 (loop swap chimera) (UniProt O93634); assay: cleavage_in_vitro; conditions: rate vs Pfu FEN1
[12] = molecular target: Mja + P16 FEN1 (loop swap chimera) (Methanococcus jannaschii / Pyrococcus furiosus?) (UniProt Q58839); assay: cleavage_in_vitro; conditions: rate vs Pfu FEN1

CLEAVASE BN nuclease, sequence (chain, as listed by the source): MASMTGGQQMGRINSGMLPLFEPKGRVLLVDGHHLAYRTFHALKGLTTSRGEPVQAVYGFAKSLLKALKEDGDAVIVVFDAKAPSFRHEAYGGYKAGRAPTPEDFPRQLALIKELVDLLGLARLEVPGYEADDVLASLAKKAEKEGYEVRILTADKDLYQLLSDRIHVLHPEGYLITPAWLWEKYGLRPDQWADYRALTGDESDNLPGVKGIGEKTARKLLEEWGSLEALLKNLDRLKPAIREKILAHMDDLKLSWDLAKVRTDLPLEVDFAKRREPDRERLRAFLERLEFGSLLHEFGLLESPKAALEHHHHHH
Thermus aquaticus DNA polymerase, sequence (chain, as listed by the source): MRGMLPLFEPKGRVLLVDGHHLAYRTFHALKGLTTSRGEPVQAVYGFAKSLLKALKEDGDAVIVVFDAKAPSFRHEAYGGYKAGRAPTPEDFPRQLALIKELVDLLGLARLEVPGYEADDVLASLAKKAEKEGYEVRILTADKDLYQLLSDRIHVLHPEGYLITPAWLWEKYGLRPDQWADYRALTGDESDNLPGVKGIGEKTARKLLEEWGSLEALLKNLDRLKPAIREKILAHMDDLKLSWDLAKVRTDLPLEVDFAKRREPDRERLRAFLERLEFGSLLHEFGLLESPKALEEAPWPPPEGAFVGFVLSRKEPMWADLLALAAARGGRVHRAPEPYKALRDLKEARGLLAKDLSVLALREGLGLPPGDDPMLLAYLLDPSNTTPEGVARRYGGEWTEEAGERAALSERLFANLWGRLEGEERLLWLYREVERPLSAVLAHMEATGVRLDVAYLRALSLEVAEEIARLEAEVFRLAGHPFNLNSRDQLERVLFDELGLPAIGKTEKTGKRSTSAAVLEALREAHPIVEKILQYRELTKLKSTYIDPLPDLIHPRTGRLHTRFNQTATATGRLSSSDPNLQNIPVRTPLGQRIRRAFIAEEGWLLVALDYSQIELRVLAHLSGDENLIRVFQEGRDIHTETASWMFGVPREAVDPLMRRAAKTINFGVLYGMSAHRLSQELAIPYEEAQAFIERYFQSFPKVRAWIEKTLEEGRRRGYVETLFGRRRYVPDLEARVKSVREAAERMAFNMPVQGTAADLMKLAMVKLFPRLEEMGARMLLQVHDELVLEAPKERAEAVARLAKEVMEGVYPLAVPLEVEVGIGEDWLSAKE
DNAPTth (Thermus thermophilus), sequence (P52028 whole entry): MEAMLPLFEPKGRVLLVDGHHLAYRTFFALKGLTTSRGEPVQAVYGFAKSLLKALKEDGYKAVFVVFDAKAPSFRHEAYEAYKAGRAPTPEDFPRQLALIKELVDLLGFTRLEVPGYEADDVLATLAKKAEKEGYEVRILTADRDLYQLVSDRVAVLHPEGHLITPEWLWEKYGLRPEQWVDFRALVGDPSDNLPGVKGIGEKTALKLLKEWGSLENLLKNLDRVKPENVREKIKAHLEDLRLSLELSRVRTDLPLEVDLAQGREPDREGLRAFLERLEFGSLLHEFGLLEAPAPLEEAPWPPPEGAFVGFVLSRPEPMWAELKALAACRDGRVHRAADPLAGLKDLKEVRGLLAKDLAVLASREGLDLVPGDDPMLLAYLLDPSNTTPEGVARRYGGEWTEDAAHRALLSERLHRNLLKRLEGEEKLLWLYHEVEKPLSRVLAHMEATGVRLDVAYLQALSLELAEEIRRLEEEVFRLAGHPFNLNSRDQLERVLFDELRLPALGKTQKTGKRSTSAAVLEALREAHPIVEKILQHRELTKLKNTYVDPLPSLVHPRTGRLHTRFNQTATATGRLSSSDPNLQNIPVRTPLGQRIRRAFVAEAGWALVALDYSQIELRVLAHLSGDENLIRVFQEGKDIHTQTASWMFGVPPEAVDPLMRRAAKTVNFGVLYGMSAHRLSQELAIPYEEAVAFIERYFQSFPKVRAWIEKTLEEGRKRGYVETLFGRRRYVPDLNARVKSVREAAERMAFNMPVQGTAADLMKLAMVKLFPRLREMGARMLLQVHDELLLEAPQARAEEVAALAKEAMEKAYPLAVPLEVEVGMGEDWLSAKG
CLEAVASE BN/thrombin nuclease, sequence (chain, as listed by the source): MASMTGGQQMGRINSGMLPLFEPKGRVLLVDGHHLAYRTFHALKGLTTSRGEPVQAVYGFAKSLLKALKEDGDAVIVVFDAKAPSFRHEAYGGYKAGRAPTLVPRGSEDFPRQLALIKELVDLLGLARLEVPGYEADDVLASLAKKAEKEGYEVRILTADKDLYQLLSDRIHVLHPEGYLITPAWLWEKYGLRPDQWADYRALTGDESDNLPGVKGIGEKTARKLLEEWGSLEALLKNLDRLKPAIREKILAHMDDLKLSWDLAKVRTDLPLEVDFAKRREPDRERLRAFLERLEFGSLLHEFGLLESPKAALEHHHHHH

factor Xa
protease digestion of the unmodified nuclease [1]: Both nuclease proteins were cut with factor Xa within the 5′ nuclease domain | protease digestion of the unmodified nuclease (CLEAVASE BN nuclease): Both nuclease proteins were cut with factor Xa within the 5′ nuclease domain

thrombin
protease digestion of the unmodified nuclease [1]: neither nuclease was digested with large amounts of thrombin | protease digestion of the unmodified nuclease (CLEAVASE BN nuclease): neither nuclease was digested with large amounts of thrombin | thrombin digestion, SDS-PAGE with Coomassie stain [2]: CLEAVASE BN/thrombin nuclease is efficiently cleaved by thrombin

CCGGTCGTCCTGGCAATXCC / GTTTATCCAAGAAAGGACCCGGTC [HCV RNA target/probe/INVADER (DNA oligos listed)]
activity [3]: 32% | activity [4]: 70%

duplex length 3 substrate
activity [5]: 29 per min | activity [6]: 1 per min

duplex length 0 substrate
activity [5]: 0 per min | activity [6]: 0 per min

TTTTTCACGGCAGTTGGTGCGCCTCGGAACGAGGCGCACA / TTTTCAACTGCCGTGA [INVADER substrate 594-12-1/203-91-1]
cleavage rate [7]: 0.56 | cleavage rate [8]: 0.03 | cleavage rate [9]: 2.4 | cleavage rate [10]: 0.14 | cleavage rate [11]: 0.05 | cleavage rate [12]: 1.2

TTTTCAACTGCTTAGAGAATCTAAGCAGTTGGTGCGCCTCGTTAA / AACGAGGCGCACATT [X-structure 203-81-2/203-91-2]
cleavage rate ([7]; 3'-NH2 on first strand): 0.52 | cleavage rate ([8]; 3'-NH2 on first strand): 0.07 | cleavage rate ([9]; 3'-NH2 on first strand): 1.37 | cleavage rate ([10]; 3'-NH2 on first strand): 0.1 | cleavage rate ([11]; 3'-NH2 on first strand): 0.28 | cleavage rate ([12]; 3'-NH2 on first strand): 59

duplex length 8 substrate
activity [5]: 46 per min | activity [6]: 45 per min

duplex length 6 substrate
activity [5]: 51 per min | activity [6]: 44 per min

duplex length 4 substrate
activity [5]: 57 per min | activity [6]: 10 per min
